Experimental data as given in patent publication US20260001928A1 (CORTERIA PHARMACEUTICALS, priority 2022, published 2026).
*1 amine or outer side, *2 acyl side, *3 side chain or, on linkers, in order; H or OH if unused. Primed or numbered codes have the meaning given here. Where no end group is shown, it is not given here. Side-chain parts run from the residue outwards. [ ]: non-standard residue; d: D form. The star is where a group is joined. Thp′ = 4-amino-tetrahydro-2H-pyran-4-yl-acetic acid, O=C(CC1(N[*:1])CCOCC1)[*:2]; C18 diacid = O=C(O)CCCCCCCCCCCCCCCCC(=O)*; γGlu = O=C(O)[C@H](CCC(=O)[*:2])N[*:1]; NMeI = CC[C@H](C)[C@H](NC)C(=O)O; Api = NC1(C(=O)O)CCNCC1; Pentanoyl = CCCCC(=O)*; AEEA = NCCOCCOCC(=O)O; Aib = CC(C)(N)C(=O)O

T1: CRF1R receptor (UniProt P34998 24-415, limits assumed)
T1 sequence (looked up): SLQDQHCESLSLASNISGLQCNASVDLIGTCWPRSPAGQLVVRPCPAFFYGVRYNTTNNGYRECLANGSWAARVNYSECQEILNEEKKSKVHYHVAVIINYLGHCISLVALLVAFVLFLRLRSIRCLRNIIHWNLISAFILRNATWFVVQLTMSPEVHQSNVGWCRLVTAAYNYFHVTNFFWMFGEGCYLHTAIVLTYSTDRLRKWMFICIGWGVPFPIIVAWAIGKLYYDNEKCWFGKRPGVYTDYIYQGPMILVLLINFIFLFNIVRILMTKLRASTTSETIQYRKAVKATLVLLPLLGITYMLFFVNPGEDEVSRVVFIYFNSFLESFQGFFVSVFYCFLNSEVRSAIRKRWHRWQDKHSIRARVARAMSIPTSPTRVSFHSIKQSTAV

B1: SEQ ID NO 197 (peptide)
peptide: Ac-IVLSLD[dV]PIKLK([AEEA-AEEA-γGlu-C18 diacid])KILLEQEKQK[Aib]QREQAETN[Aib]QILAQV-NH2
SMILES: CC[C@H](C)[C@H](NC(C)=O)C(=O)N[C@H](C(=O)N[C@@H](CC(C)C)C(=O)N[C@@H](CO)C(=O)N[C@@H](CC(C)C)C(=O)N[C@@H](CC(=O)O)C(=O)N[C@@H](C(=O)N1CCC[C@H]1C(=O)N[C@H](C(=O)N[C@@H](CCCCN)C(=O)N[C@@H](CC(C)C)C(=O)N[C@@H](CCCCNC(=O)COCCOCCNC(=O)COCCOCCNC(=O)CC[C@H](NC(=O)CCCCCCCCCCCCCCCCC(=O)O)C(=O)O)C(=O)N[C@@H](CCCCN)C(=O)N[C@H](C(=O)N[C@@H](CC(C)C)C(=O)N[C@@H](CC(C)C)C(=O)N[C@@H](CCC(=O)O)C(=O)N[C@@H](CCC(N)=O)C(=O)N[C@@H](CCC(=O)O)C(=O)N[C@@H](CCCCN)C(=O)N[C@@H](CCC(N)=O)C(=O)N[C@@H](CCCCN)C(=O)NC(C)(C)C(=O)N[C@@H](CCC(N)=O)C(=O)N[C@@H](CCCNC(=N)N)C(=O)N[C@@H](CCC(=O)O)C(=O)N[C@@H](CCC(N)=O)C(=O)N[C@@H](C)C(=O)N[C@@H](CCC(=O)O)C(=O)N[C@H](C(=O)N[C@@H](CC(N)=O)C(=O)NC(C)(C)C(=O)N[C@@H](CCC(N)=O)C(=O)N[C@H](C(=O)N[C@@H](CC(C)C)C(=O)N[C@@H](C)C(=O)N[C@@H](CCC(N)=O)C(=O)N[C@H](C(N)=O)C(C)C)[C@@H](C)CC)[C@@H](C)O)[C@@H](C)CC)[C@@H](C)CC)C(C)C)C(C)C
B2: SEQ ID NO 195 (peptide)
peptide: Pentanoyl-VLSLD[dV]PIGLK([γGlu-C18 diacid])KILLEQEKQKKQREQAETN[Aib]QILAQV-NH2
SMILES: CCCCC(=O)N[C@H](C(=O)N[C@@H](CC(C)C)C(=O)N[C@@H](CO)C(=O)N[C@@H](CC(C)C)C(=O)N[C@@H](CC(=O)O)C(=O)N[C@@H](C(=O)N1CCC[C@H]1C(=O)N[C@H](C(=O)NCC(=O)N[C@@H](CC(C)C)C(=O)N[C@@H](CCCCNC(=O)CC[C@H](NC(=O)CCCCCCCCCCCCCCCCC(=O)O)C(=O)O)C(=O)N[C@@H](CCCCN)C(=O)N[C@H](C(=O)N[C@@H](CC(C)C)C(=O)N[C@@H](CC(C)C)C(=O)N[C@@H](CCC(=O)O)C(=O)N[C@@H](CCC(N)=O)C(=O)N[C@@H](CCC(=O)O)C(=O)N[C@@H](CCCCN)C(=O)N[C@@H](CCC(N)=O)C(=O)N[C@@H](CCCCN)C(=O)N[C@@H](CCCCN)C(=O)N[C@@H](CCC(N)=O)C(=O)N[C@@H](CCCNC(=N)N)C(=O)N[C@@H](CCC(=O)O)C(=O)N[C@@H](CCC(N)=O)C(=O)N[C@@H](C)C(=O)N[C@@H](CCC(=O)O)C(=O)N[C@H](C(=O)N[C@@H](CC(N)=O)C(=O)NC(C)(C)C(=O)N[C@@H](CCC(N)=O)C(=O)N[C@H](C(=O)N[C@@H](CC(C)C)C(=O)N[C@@H](C)C(=O)N[C@@H](CCC(N)=O)C(=O)N[C@H](C(N)=O)C(C)C)[C@@H](C)CC)[C@@H](C)O)[C@@H](C)CC)[C@@H](C)CC)C(C)C)C(C)C
B3: SEQ ID NO 201 (peptide)
peptide: Pentanoyl-VLSLD[dV]PIKLK([AEEA-AEEA-γGlu-C18 diacid])KILLEQEKQKKQREQAETN[Aib]QILAQV-NH2
SMILES: CCCCC(=O)N[C@H](C(=O)N[C@@H](CC(C)C)C(=O)N[C@@H](CO)C(=O)N[C@@H](CC(C)C)C(=O)N[C@@H](CC(=O)O)C(=O)N[C@@H](C(=O)N1CCC[C@H]1C(=O)N[C@H](C(=O)N[C@@H](CCCCN)C(=O)N[C@@H](CC(C)C)C(=O)N[C@@H](CCCCNC(=O)COCCOCCNC(=O)COCCOCCNC(=O)CC[C@H](NC(=O)CCCCCCCCCCCCCCCCC(=O)O)C(=O)O)C(=O)N[C@@H](CCCCN)C(=O)N[C@H](C(=O)N[C@@H](CC(C)C)C(=O)N[C@@H](CC(C)C)C(=O)N[C@@H](CCC(=O)O)C(=O)N[C@@H](CCC(N)=O)C(=O)N[C@@H](CCC(=O)O)C(=O)N[C@@H](CCCCN)C(=O)N[C@@H](CCC(N)=O)C(=O)N[C@@H](CCCCN)C(=O)N[C@@H](CCCCN)C(=O)N[C@@H](CCC(N)=O)C(=O)N[C@@H](CCCNC(=N)N)C(=O)N[C@@H](CCC(=O)O)C(=O)N[C@@H](CCC(N)=O)C(=O)N[C@@H](C)C(=O)N[C@@H](CCC(=O)O)C(=O)N[C@H](C(=O)N[C@@H](CC(N)=O)C(=O)NC(C)(C)C(=O)N[C@@H](CCC(N)=O)C(=O)N[C@H](C(=O)N[C@@H](CC(C)C)C(=O)N[C@@H](C)C(=O)N[C@@H](CCC(N)=O)C(=O)N[C@H](C(N)=O)C(C)C)[C@@H](C)CC)[C@@H](C)O)[C@@H](C)CC)[C@@H](C)CC)C(C)C)C(C)C
B4: SEQ ID NO 194 (peptide)
peptide: Pentanoyl-VLSLD[dV]PIKLK([γGlu-C18 diacid])KILLEQEKQK[Aib]QREQAETN[Aib]QILAQV-NH2
SMILES: CCCCC(=O)N[C@H](C(=O)N[C@@H](CC(C)C)C(=O)N[C@@H](CO)C(=O)N[C@@H](CC(C)C)C(=O)N[C@@H](CC(=O)O)C(=O)N[C@@H](C(=O)N1CCC[C@H]1C(=O)N[C@H](C(=O)N[C@@H](CCCCN)C(=O)N[C@@H](CC(C)C)C(=O)N[C@@H](CCCCNC(=O)CC[C@H](NC(=O)CCCCCCCCCCCCCCCCC(=O)O)C(=O)O)C(=O)N[C@@H](CCCCN)C(=O)N[C@H](C(=O)N[C@@H](CC(C)C)C(=O)N[C@@H](CC(C)C)C(=O)N[C@@H](CCC(=O)O)C(=O)N[C@@H](CCC(N)=O)C(=O)N[C@@H](CCC(=O)O)C(=O)N[C@@H](CCCCN)C(=O)N[C@@H](CCC(N)=O)C(=O)N[C@@H](CCCCN)C(=O)NC(C)(C)C(=O)N[C@@H](CCC(N)=O)C(=O)N[C@@H](CCCNC(=N)N)C(=O)N[C@@H](CCC(=O)O)C(=O)N[C@@H](CCC(N)=O)C(=O)N[C@@H](C)C(=O)N[C@@H](CCC(=O)O)C(=O)N[C@H](C(=O)N[C@@H](CC(N)=O)C(=O)NC(C)(C)C(=O)N[C@@H](CCC(N)=O)C(=O)N[C@H](C(=O)N[C@@H](CC(C)C)C(=O)N[C@@H](C)C(=O)N[C@@H](CCC(N)=O)C(=O)N[C@H](C(N)=O)C(C)C)[C@@H](C)CC)[C@@H](C)O)[C@@H](C)CC)[C@@H](C)CC)C(C)C)C(C)C
B5: SEQ ID NO 196 (peptide)
peptide: Ac-IVLSLD[dV]PIKLK([AEEA-AEEA-γGlu-C18 diacid])KILLEQEKQK[Aib]QREQAETN[Api]QILAQV-NH2
SMILES: CC[C@H](C)[C@H](NC(C)=O)C(=O)N[C@H](C(=O)N[C@@H](CC(C)C)C(=O)N[C@@H](CO)C(=O)N[C@@H](CC(C)C)C(=O)N[C@@H](CC(=O)O)C(=O)N[C@@H](C(=O)N1CCC[C@H]1C(=O)N[C@H](C(=O)N[C@@H](CCCCN)C(=O)N[C@@H](CC(C)C)C(=O)N[C@@H](CCCCNC(=O)COCCOCCNC(=O)COCCOCCNC(=O)CC[C@H](NC(=O)CCCCCCCCCCCCCCCCC(=O)O)C(=O)O)C(=O)N[C@@H](CCCCN)C(=O)N[C@H](C(=O)N[C@@H](CC(C)C)C(=O)N[C@@H](CC(C)C)C(=O)N[C@@H](CCC(=O)O)C(=O)N[C@@H](CCC(N)=O)C(=O)N[C@@H](CCC(=O)O)C(=O)N[C@@H](CCCCN)C(=O)N[C@@H](CCC(N)=O)C(=O)N[C@@H](CCCCN)C(=O)NC(C)(C)C(=O)N[C@@H](CCC(N)=O)C(=O)N[C@@H](CCCNC(=N)N)C(=O)N[C@@H](CCC(=O)O)C(=O)N[C@@H](CCC(N)=O)C(=O)N[C@@H](C)C(=O)N[C@@H](CCC(=O)O)C(=O)N[C@H](C(=O)N[C@@H](CC(N)=O)C(=O)NC1(C(=O)N[C@@H](CCC(N)=O)C(=O)N[C@H](C(=O)N[C@@H](CC(C)C)C(=O)N[C@@H](C)C(=O)N[C@@H](CCC(N)=O)C(=O)N[C@H](C(N)=O)C(C)C)[C@@H](C)CC)CCNCC1)[C@@H](C)O)[C@@H](C)CC)[C@@H](C)CC)C(C)C)C(C)C
B6: SEQ ID NO 198 (peptide)
peptide: Ac-IVLSLD[dV]PIKLK([AEEA-AEEA-γGlu-C18 diacid])KILLEQEKQKKQREQAETN[Thp′]QILAQV-NH2
B7: SEQ ID NO 200 (peptide)
peptide: [NMeI]VLSLD[dV]PIKLK([AEEA-AEEA-γGlu-C18 diacid])KILLEQEKQK[Aib]QREQAETN[Aib]QILAQV-NH2
modifications: N-terminus assumed
SMILES: CC[C@H](C)[C@H](NC)C(=O)N[C@H](C(=O)N[C@@H](CC(C)C)C(=O)N[C@@H](CO)C(=O)N[C@@H](CC(C)C)C(=O)N[C@@H](CC(=O)O)C(=O)N[C@@H](C(=O)N1CCC[C@H]1C(=O)N[C@H](C(=O)N[C@@H](CCCCN)C(=O)N[C@@H](CC(C)C)C(=O)N[C@@H](CCCCNC(=O)COCCOCCNC(=O)COCCOCCNC(=O)CC[C@H](NC(=O)CCCCCCCCCCCCCCCCC(=O)O)C(=O)O)C(=O)N[C@@H](CCCCN)C(=O)N[C@H](C(=O)N[C@@H](CC(C)C)C(=O)N[C@@H](CC(C)C)C(=O)N[C@@H](CCC(=O)O)C(=O)N[C@@H](CCC(N)=O)C(=O)N[C@@H](CCC(=O)O)C(=O)N[C@@H](CCCCN)C(=O)N[C@@H](CCC(N)=O)C(=O)N[C@@H](CCCCN)C(=O)NC(C)(C)C(=O)N[C@@H](CCC(N)=O)C(=O)N[C@@H](CCCNC(=N)N)C(=O)N[C@@H](CCC(=O)O)C(=O)N[C@@H](CCC(N)=O)C(=O)N[C@@H](C)C(=O)N[C@@H](CCC(=O)O)C(=O)N[C@H](C(=O)N[C@@H](CC(N)=O)C(=O)NC(C)(C)C(=O)N[C@@H](CCC(N)=O)C(=O)N[C@H](C(=O)N[C@@H](CC(C)C)C(=O)N[C@@H](C)C(=O)N[C@@H](CCC(N)=O)C(=O)N[C@H](C(N)=O)C(C)C)[C@@H](C)CC)[C@@H](C)O)[C@@H](C)CC)[C@@H](C)CC)C(C)C)C(C)C

Target: T1, CRF1R receptor
Assay: cell-based or functional assay

Compared with B1, B2 is higher in “Emax (% I)” value: 5% for the first, 42% for the second.

Going from B3 to B4, the “Emax (% I)” value rises from 5% to 10%.

Compared with B5, B6 is lower in “Emax (% I)” value: 9% for the first, 8% for the second.

With B7 the “Emax (% I)” value was 2%.

Compared with B2, B6 is higher in “EC50” value: 180 nM for the first, greater than 250 nM for the second.

Target: human corticotropin-releasing factor 2a (CRF2a receptor) (human), Q13324
Sequence (Q13324 20-411): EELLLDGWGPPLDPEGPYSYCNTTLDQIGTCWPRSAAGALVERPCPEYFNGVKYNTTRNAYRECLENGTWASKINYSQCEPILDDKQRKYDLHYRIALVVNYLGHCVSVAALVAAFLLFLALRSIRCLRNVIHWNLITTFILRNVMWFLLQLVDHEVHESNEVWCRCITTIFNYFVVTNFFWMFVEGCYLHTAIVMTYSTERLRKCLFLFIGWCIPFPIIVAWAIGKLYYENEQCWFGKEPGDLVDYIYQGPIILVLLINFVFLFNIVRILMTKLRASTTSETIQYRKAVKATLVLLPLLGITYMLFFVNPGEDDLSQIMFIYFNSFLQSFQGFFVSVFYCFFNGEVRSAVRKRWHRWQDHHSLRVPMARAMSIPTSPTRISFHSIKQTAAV
Assay: cell-based or functional assay

Going from B1 to B2, the EC50 [nM] (cAMP) falls from 1.28 nM to 0.21 nM (6.1-fold).

Going from B3 to B4, the EC50 [nM] (cAMP) falls from 1.37 nM to 0.44 nM (3.1-fold).

B5 and B6 are within 1.5-fold of each other in EC50 [nM] (cAMP): 2.2 nM for the first, 1.7 nM for the second.

Work on B7 yielded an EC50 [nM] (cAMP) of 0.71 nM.
